Experimental findings from paper doi:10.1101/2023.07.25.550441 are described below.

Assay in all cases: SPR
Assay [1] addresses Asgard UEV (the UEV of UEV-Vps23 and UEV-Vps28), as tested against Asgard ubiquitin.
Assay [2] concerns the target Helarchaeia RING E3 (N-loopΔ), truncated E3 that lacks the N-loop (residues 1-19) (Helarchaeota).
Assay [3] deals with Helarchaeia full-length RING E3 (Helarchaeota).

In assay [1], “Asgard ubiquitin, as tested against Asgard UEV” gave a Kd of 0.674 to 7.15 µM. On to “Helarchaeia UEV (residues 1-132) of UEV-Vps23 (domain or fragment)”, for which the Kd turned out to be 8140 µM in assay [2] and 257 µM in assay [3].
